In general, EC50 refers to the concentration giving half of the maximal effect. For orientation: Kd means the concentration at which binding is half-saturated.

Here are results for four substances from patent US20210380710A1.

For test [1], the target named is human CD3 on the cell surface (Jurkat cells) (human) (UniProt P07766). Put plainly: flow cytometry on Jurkat cells.
The target in test [2] is human CD20 on the cell surface (Raji, Ramos, Namalwa cells) (human) (UniProt P11836). Briefly: cell-based or functional assay.
Sequence of UniProt P11836 (P11836 whole entry): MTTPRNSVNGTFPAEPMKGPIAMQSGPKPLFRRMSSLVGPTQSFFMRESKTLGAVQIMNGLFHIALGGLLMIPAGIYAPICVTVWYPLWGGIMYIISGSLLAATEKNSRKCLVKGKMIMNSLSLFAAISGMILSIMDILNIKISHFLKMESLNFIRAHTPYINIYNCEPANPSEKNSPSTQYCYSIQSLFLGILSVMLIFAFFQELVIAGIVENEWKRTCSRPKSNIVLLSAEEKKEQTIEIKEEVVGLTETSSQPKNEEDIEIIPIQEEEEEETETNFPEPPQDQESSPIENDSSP
For test [3] the target is unchanged. Put plainly: flow cytometry on Raji cells. A general note: Flow cytometry measures light scatter and fluorescence of single cells or particles in a stream.
Test [4] concerns the target human CD3 on the cell surface (Jurkat cells) (human) (UniProt P07766). Briefly: FACS affinity on Jurkat cells, FITC bead quantitation. Also noted: Bmax: unit not given here.
Test [5] deals with human CD20 on the cell surface (Raji, Ramos, Namalwa cells) (human) (UniProt P11836). Briefly: FACS affinity on Ramos cells, FITC bead quantitation.
For test [6] the target is unchanged. Put plainly: flow cytometry on Ramos cells, antibody 10 ug/ml.
Test [7] shares this target. Briefly: flow cytometry on Raji cells, antibody 10 ug/ml.
The target in test [8] is human CD3 on the cell surface (Jurkat cells) (human) (UniProt P07766). Put plainly: flow cytometry on Jurkat cells, antibody 10 ug/ml.
Test [9] shares this target. Put plainly: flow cytometry on Hut78 cells (target on Hut78 not given), antibody 10 ug/ml.
For test [10], the target named is PD-1.his (Homo sapiens (Human)) (UniProt Q15116). Briefly: ELISA, antigen coated at 2 ug/mL, antibody 10 ug/ml; * specific binding.
Sequence of UniProt Q15116 (Q15116 25-170 limits assumed): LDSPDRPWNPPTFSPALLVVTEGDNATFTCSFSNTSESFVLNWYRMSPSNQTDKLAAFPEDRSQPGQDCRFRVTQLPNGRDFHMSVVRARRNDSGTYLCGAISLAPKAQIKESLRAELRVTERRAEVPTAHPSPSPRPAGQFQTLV
For test [11], the target named is human CD20 on the cell surface (Raji, Ramos, Namalwa cells) (human) (UniProt P11836). Put plainly: flow cytometry on Raji cells, secondary antibody alone.
Test [12] deals with human CD3 on the cell surface (Jurkat cells) (human) (UniProt P07766). Briefly: flow cytometry on Hut78 cells (target on Hut78 not given), secondary antibody alone.
The target is the same in test [13]. Put plainly: flow cytometry on Jurkat cells, secondary antibody alone.
Test [14] deals with human CD20 on the cell surface (Raji, Ramos, Namalwa cells) (human) (UniProt P11836). Briefly: flow cytometry on Ramos cells, secondary antibody alone.

Sequence of UniProt P07766 (P07766 23-207, chain 1 of 3): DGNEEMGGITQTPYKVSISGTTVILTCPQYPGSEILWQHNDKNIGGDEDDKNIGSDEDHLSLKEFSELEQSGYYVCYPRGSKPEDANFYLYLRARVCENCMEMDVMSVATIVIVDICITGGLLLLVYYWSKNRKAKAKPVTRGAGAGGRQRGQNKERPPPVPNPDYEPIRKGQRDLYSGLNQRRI
Sequence of UniProt P07766 (P04234 22-171, chain 2 of 3, further chain): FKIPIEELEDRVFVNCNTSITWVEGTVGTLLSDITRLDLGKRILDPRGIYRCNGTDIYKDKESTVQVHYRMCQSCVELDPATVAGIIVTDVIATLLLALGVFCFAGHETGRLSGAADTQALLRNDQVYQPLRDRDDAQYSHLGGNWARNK
Sequence of UniProt P07766 (P09693 23-182, chain 3 of 3, further chain): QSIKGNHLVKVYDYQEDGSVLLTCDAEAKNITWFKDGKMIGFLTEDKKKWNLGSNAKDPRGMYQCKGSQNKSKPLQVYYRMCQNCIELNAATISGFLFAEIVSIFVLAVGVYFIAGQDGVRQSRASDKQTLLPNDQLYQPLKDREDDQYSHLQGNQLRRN

For the substance BMK4 (REGN1979) (bispecific antibody), the EC50 in [1] came to 8800 pM. Further, in [2], the EC50 of T cell activation (CD25 expression), CD4+ cells, in the presence of Raji cells came to 6 pM; the EC50 of T cell activation (CD25 expression), CD8+ cells, in the presence of Raji cells is 18.3 pM; the EC50 of bispecific antibody mediated cytotoxicity, NAMALWA, 4 hours FACS based cytotoxicity assay with CD8+ T cells turned out to be 31.8 pM; the EC50 of bispecific antibody mediated cytotoxicity, NAMALWA, two hour calcein release assay with CD8+ T cells was 26 pM. Besides, in [2], the EC50 of bispecific antibody mediated cytotoxicity, Raji, 4 hours FACS based cytotoxicity assay with CD8+ T cells was 3.12 pM; the EC50 of bispecific antibody mediated cytotoxicity, Raji, two hour calcein release assay with CD8+ T cells is 2.69 pM; the EC50 of bispecific antibody mediated cytotoxicity, Ramos, two hour calcein release assay with CD8+ T cells was 1.49 pM. Moreover, the EC50 in [3] was determined as 41100 pM. In test [4], the Bmax stood at 1.1e-10 and the Kd worked out at 30000 pM. For the same substance, in test [5], the Bmax was determined as 6.8e-10 and the Kd was 67000 pM.

Human IgG4K control (antibody): the FACS MFI in test [6] was determined as 68; in test [7], 92; in test [8] it was 25; in test [9], 61. The absorbance at 450 nm in test [10] came to 3.87.

Human IgG4L control (antibody): the FACS MFI worked out at 63 in test [6], 22 in test [8] and 38 in test [9].

In the case of “goat anti-human IgG Fc-PE (Jackson, 109-115-098) (antibody)”, the FACS MFI in test [11] came to 67; in [12] it was 28; in test [13], 21; in [14], 65.
